The assay addresses PCM1 (endogenous) [human (endogenous in HEK293A)]. Kind of assay: GFP-TRAP pull-down and immunoblot, quantified. Conditions: read off a plot, scale: relative protein level normalized to ponceau. A general note: A western blot detects proteins with antibodies after separation by electrophoresis.

For the substance “GFP-GABARAP mutant G116A [human] / PCM1 (endogenous) [human (endogenous in HEK293A)] chain 1 G116A”, the response is, setting by setting: (EBSS (ES) for 2 hr) 0.85; (EBSS + BAFA (EB) for 2 hr) 1.2; (full medium (FM)) 1.

Values taken from PMC5526835.
